Source: patent US9890400B2, “Method of production of 2,4-dihydroxybutyric acid” (ADISSEO FRANCE S.A.S., priority 2012, dated 2018)

Assay: Test for malate semialdehyde reductase (DHB dehydrogenase) activity
Type: biochemical
Details: for Activity on malate semialdehyde (cofactor NADH) / Activity on malate semialdehyde (cofactor NADPH): 10 mM malate semialdehyde, 30° C., average of at least two experiments
Protocol: Test for Malate Semialdehyde Reductase Activity: (L)-Malate semialdehyde+NAD(P)H→(L)-2,4-dihydroxybutyric acid+NAD(P) Reaction scheme:
The assay mixture contained 200 mM Hepes (pH 7.5), 50 mM KCl, 5 mM MgCl2, 0.24 mM NADH or NADPH, and appropriate amounts of purified enzyme or cell extract. Reactions were started by adding 10 mM (L)-malate semialdehyde (malate semialdehyde was prepared freshly for each test, see Example 3). Enzymatic assays were carried out at 30° C. in 96-well flat bottomed microtiter plates in a final volume of 250 μL. The reactions were followed by the characteristic absorption of NAD(P)H at 340 nm (εNADPH=6.22 mM^−1 cm^−1) in a microplate reader (BioRad 680XR).

Row | Molecule | affinity for malate semialdehyde compared to the wild type enzyme (in words) | Activity on malate semialdehyde (cofactor NADH) | Activity on malate semialdehyde (cofactor NADPH)
1 | H39R N43H: M. sedula succinic semialdehyde reductase double mutant H39R N43H, SEQ ID No. 36 (protein, listed as Metallosphaera sedula) MKAAVLHTYKEPLSIEDVNISQPKAGEVKIKVKATGLCRSDVHVFEGKTPVPPPVVAGHEISGIVEEVGPGVTRVKPGDRVISAFIHPCGKCGNCVAGKENLCETFSQVRLKGVMPDGTSRLSKDGKEIRTFLGGGFAEYAIVGENALTRVPEDMDLEKVAVLGCAGLTGYGAISSSKIEPGDTVAVIGVGGVGLSTIQLLRASGAGRIIAVGTKKWKLDRAMELGATDVVNSKEIDPVKAIKEITGGGPQVVIEAGGNEDTIHMALDSVRIGGKVVLVGLPPATAMIPIRVASIVRGGIEVVGNYGGRPRVDMPKLLELVRQGRYDPSRLVTGRFRLEEINEAVKMLEEGEAIRSLIIP | improved affinity | – | –
2 | Ms-SSR: succinic semialdehyde reductase from Metallosphaera sedula, SEQ ID No. 16 (protein, listed as Metallosphaera sedula) MKAAVLHTYKEPLSIEDVNISQPKAGEVKIKVKATGLCHSDVNVFEGKTPVPPPVVAGHEISGIVEEVGPGVTRVKPGDRVISAFIHPCGKCGNCVAGKENLCETFSQVRLKGVMPDGTSRLSKDGKEIRTFLGGGFAEYAIVGENALTRVPEDMDLEKVAVLGCAGLTGYGAISSSKIEPGDTVAVIGVGGVGLSTIQLLRASGAGRIIAVGTKKWKLDRAMELGATDVVNSKEIDPVKAIKEITGGGPQVVIEAGGNEDTIHMALDSVRIGGKVVLVGLPPATAMIPIRVASIVRGGIEVVGNYGGRPRVDMPKLLELVRQGRYDPSRLVTGRFRLEEINEAVKMLEEGEAIRSLIIP | – | 4.9 μmol/(min * mg_prot) | 4.9 μmol/(min * mg_prot)
3 | YqhD: alcohol dehydrogenase of E. coli, SEQ ID No. 185 (protein, listed as Escherichia coli) MNNFNLHTPTRILFGKGAIAGLREQIPHDARVLITYGGGSVKKTGVLDQVLDALKGMDVLEFGGIEPNPAYETLMNAVKLVREQKVTFLLAVGGGSVLDGTKFIAAAANYPENIDPWHILQTGGKEIKSAIPMGCVLTLPATGSESNAGAVISRKTTGDKQAFHSAHVQPVFAVLDPVYTYTLPPRQVANGVVDAFVHTVEQYVTKPVDAKIQDRFAEGILLTLIEDGPKALKEPENYDVRANVMWAATQALNGLIGAGVPQDWATHMLGHELTAMHGLDHAQTLAIVLPALWNEKRDTKRAKLLQYAERVWNITEGSDDERIDAAIAATRNFFEQLGVPTHLSDYGLDGSSIPALLKKLEEHGMTQLGENHDITLDVSRRIYEAAR | – | – | 1.2 μmol/(min * mg_prot)
4 | 4hbdh: 4-hydroxybutyrate dehydrogenase of P. gingivalis, SEQ ID No. 187 (protein, listed as Porphyromonas gingivalis) MQLFKLKSVTHHFDTFAEFAKEFCLGERDLVITNEFIYEPYMKACQLPCHFVMQEKYGQGEPSDEMMNNILADIRNIQFDRVIGIGGGTVIDISKLFVLKGLNDVLDAFDRKIPLIKEKELIIVPTTCGTGSEVTNISIAEIKSRHTKMGLADDAIVADHAIIIPELLKSLPFHFYACSAIDALIHAIESYVSPKASPYSRLFSEAAWDIILEVFKKIAEHGPEYRFEKLGEMIMASNYAGIAFGNAGVGAVHALSYPLGGNYHVPHGEANYQFFTEVFKVYQKKNPFGYIVELNWKLSKILNCQPEYVYPKLDELLGCLLTKKPLHEYGMKDEEVRGFAESVLKTQQRLLANNYVELTVDEIEGIYRRLY | – | 33 μmol/(min * mg_prot) | –
5 | YPR1: methylbutyraldehyde reductase from Saccharomyces cerevisiae, SEQ ID No. 14 (protein, listed as Saccharomyces cerevisiae) MPATLKNSSATLKLNTGASIPVLGFGTWRSVDNNGYHSVIAALKAGYRHIDAAAIYLNEEEVGRAIKDSGVPREEIFITTKLWGTEQRDPEAALNKSLKRLGLDYVDLYLMHWPVPLKTDRVTDGNVLCIPTLEDGTVDIDTKEWNFIKTWELMQELPKTGKTKAVGVSNFSINNIKELLESPNNKVVPATNQIEIHPLLPQDELIAFCKEKGIVVEAYSPFGSANAPLLKEQAIIDMAKKHGVEPAQLIISWSIQRGYVVLAKSVNPERIVSNFKIFTLPEDDFKTISNLSKVHGTKRVVDMKWGSFPIFQ | – | – | 0.19 μmol/(min * mg_prot)
